Test results: patent US20030059769, “High affinity nucleic acid ligands to lectins” (published 2003)

Tests used:
[1] = biological target: T1, soluble L-selectin (Homo sapiens, UniProt P14151 P14151:39-332); test: filter; binding undetectable, 37 C; conditions: tags: R&D Systems
T1 sequence: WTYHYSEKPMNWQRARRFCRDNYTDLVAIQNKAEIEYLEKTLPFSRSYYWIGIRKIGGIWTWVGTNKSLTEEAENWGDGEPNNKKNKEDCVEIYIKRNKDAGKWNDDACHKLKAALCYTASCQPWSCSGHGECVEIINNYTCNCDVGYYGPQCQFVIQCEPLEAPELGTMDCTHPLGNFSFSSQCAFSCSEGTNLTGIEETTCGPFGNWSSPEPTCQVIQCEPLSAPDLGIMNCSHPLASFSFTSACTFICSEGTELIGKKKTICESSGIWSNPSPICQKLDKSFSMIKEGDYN

[2] = biological target: T2, L-selectin (LS-Rg) (Homo sapiens, UniProt P14151 P14151:39-332); test: filter; 37 C; conditions: tags: human IgG2 Fc fusion
T2 sequence: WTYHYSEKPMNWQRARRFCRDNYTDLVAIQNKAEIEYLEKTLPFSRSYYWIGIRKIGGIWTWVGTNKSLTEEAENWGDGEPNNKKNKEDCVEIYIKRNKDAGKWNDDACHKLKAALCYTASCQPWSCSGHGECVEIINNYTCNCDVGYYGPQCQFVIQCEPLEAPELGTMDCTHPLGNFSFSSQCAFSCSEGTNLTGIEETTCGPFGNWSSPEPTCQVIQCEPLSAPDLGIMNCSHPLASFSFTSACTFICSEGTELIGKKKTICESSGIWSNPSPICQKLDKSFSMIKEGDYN
Protocol: (§1) Unless otherwise indicated, all materials used in the 2′-F RNA SELEX against the L-selectin/IgG2 chimera, LS-Rg, were identical to those of Examples 7, paragraph A and 13, paragraph A. SHMCK-140 buffer, used for all SELEX and binding experiments, was 1 mM CaCl₂, 1 mM MgCC₂, 140 mM NaCl, 5 mM KCl. and 20 mM HEPES, pH 7.4. A soluble form of L-selectin, corresponding to the extracellular domains, was purchased from R&D Systems and used for some nitrocellulose filter binding experiments.
(§2) As described in SELEX Patent Applications, a nitrocellulose filter partitioning method was used to determine the affinity of RNA ligands for LS-Rg and for other proteins. Filter discs (nitrocellulose/cellulose acetate mixed matrix, 0.45 μm pore size, Millipore) were placed on a vacuum manifold and washed with 3 ml of SHMCK 140 buffer under vacuum. Reaction mixtures, containing ³²P labeled RNA pools and unlabeled LS-Rg, were incubated in SHMCK 140 for 10-20 min at 37° C., and then immediately washed with 3 ml SHMCK 140. The filters were air-dried and counted in a Beckman LS6500 liquid scintillation counter without fluor. Alternatively, binding studies employed 96 well micro-titer manifolds essentially as described in Example 13, paragraph E.
(§3) These calculations assume two ligand binding sites per chimera.

[3] = biological target: T3, L-selectin on PBMC / lymphocytes (Homo sapiens, UniProt P14151 P14151:39-372); test: flow; competition with FITC-LD201T1
T3 sequence: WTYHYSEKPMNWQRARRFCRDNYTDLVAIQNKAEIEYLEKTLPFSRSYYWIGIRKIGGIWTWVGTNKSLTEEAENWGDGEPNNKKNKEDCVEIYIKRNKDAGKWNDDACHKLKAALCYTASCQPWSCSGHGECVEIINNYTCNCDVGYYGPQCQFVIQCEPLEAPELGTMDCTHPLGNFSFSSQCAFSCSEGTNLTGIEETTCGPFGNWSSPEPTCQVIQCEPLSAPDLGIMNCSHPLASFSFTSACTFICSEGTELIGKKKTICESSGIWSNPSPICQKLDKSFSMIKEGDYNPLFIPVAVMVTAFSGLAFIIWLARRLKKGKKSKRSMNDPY
Protocol: Binding of evolved ligands to L-selectin presented in the context of a cell surface was tested by flow cytometry experiments with human lymphocytes. Briefly, peripheral blood mononuclear cells (PBMC) were purified on histoplaque by standard techniques. […] Fluorescent staining of cells was quantified on a FACSCaliber fluorescent activated cell sorter (Becton Dickinson, San Jose, Calif.). The affinity of the 2′-F competitor was calculated from the flurorescence inhibition curves.
The ability of full length 2′-F ligands to bind to L-selectin presented in the context of a cell surface was tested by competition-flow cytometry experiments with human peripheral blood lymphocytes.

[4] = biological target: T1, soluble L-selectin; test: filter; 37 C, soluble L-selectin; conditions: tags: R&D Systems; label: 32P
Protocol: as §1, §2

[5] = biological target: T1, soluble L-selectin; test: filter; 37 C; conditions: tags: R&D Systems
Protocol: as §1, §2, §3

[6] = biological target: T4, Wheat germ agglutinin (WGA) (Triticum vulgare, UniProt P10968 P10968:27-197); test: filter; HBSS, room temperature; conditions: tags: E Y Laboratories
T4 sequence: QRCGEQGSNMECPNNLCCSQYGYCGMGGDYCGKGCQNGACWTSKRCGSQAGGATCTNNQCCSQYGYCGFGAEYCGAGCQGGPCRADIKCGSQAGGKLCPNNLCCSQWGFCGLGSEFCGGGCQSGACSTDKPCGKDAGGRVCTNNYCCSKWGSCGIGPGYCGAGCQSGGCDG
Protocol: As described in SEIEX patent applications, a nitrocellulose filter partitioning method was used to determine the affinity of RNA ligands for WGA and for other proteins. Filter discs (nitrocellulose/cellulose acetate mixed matrix, 0.45 μm pore size, Millipore; or pure nitrocellulose, 0.45 μm pore size, Bio-Rad) were placed on a vacuum manifold and washed with 4 ml of HBSS buffer under vacuum. Reaction mixtures, containing ³²P labeled RNA pools and unlabeled WGA, were incubated in HBSS for 10 min at room temperature, filtered, and then imnmediately washed with 4 ml HBSS. The filters were air-dried and counted in a Beckman LS6500 liquid scintillation counter without fluor.
The dissociation constants for representative members of families 1-9 and orphan ligands were determined by nitrocellulose filter binding experiments and are listed in Table 3. These calculations assume one RNA ligand binding site per WGA monomer.

[7] = biological target: T3, L-selectin on PBMC / lymphocytes; test: flow; half-saturation; conditions: label: 5' fluorescein
Excerpt: A variety of monomeric nucleic acid ligands and multivalent Complexes have been examined in flow cytometry.

[8] = biological target: T2, L-selectin (LS-Rg); test: inhibition; sialyl-LewisX competition ELISA; conditions: tags: human IgG2 Fc fusion; chain copies: 2 (stated dimer)
Protocol: SLe^X-BSA (Oxford GlycoSystems, Oxford, UK) in 1X PBS, without CaCl₂, and MgCl₂, (GIBCO/BRL) was immobilized at 100 ng/well onto a microtiter plate by overnight incubation at […]. The wells were blocked for 1 h with the assay buffer consisting of 20 mM HEPES, 111 mM NaCl, 1 mM CaCl₂, 1 mM MgCl₂, 5 mM KCl, 8.9 mM NaOH, final pH 8, and 1% globulin-free BSA (Sigma). The reaction mixtures, incubated for 90 min with orbital shaking, contained 5 nM L-Selectin-Rg, a 1:100 dilution of anti-human IgG-peroxidase conjugate (Sigma), and 0 - 50 ruM of competitor in assay buffer. After incubation, the plate was washed with BSA-free assay buffer to remove unbound chimera-antibody complex and incubated for 25 min with O-phenylenediamine dihydrochloride peroxidase substrate (Sigma) by shaking in the dark at 22°0 C. Absorbance was read at 450 nm on a Bio-Kinetics Reader, Model EL312e (Bio-Tek Instruments, Laguna Hills, Calif.). Values shown represent the mean ±s.e from duplicate, or triplicate, samples from one representative experiment.
Sialyl Lewis^X is the minimal carbohydrate ligand bound by selecting.

[9] = chain copies: homodimer, label: 32P
[10] = chain copies: 2 (stated homodimer)

B1: LF1528 (ssRNA)
RNA: GGGAGGACGAUGCGGUUAGGUCAAUGAUCUUAGUUUUCGAUUCGUCAGACGACUCGCCCGA
modifications: 2'-F C and U
B1: no binding [1].

B2: LF1527 (ssRNA)
RNA: GGGAGGACGAUGCGGACCCUCAAAUAGCGUGCAUUUCAAGCUGGUCAGACGACUCGCCCGA
modifications: 2'-F C and U
In the case of B2, the Kd ([2]; chain copies: 2 (stated dimer)) is reported as 0.32 nM.

B3: LF1529 (ssRNA)
RNA: GGGAGGACGAUGCGGACCCUCAAAUAACGUGUCUUUCAAGUUGGUCAGACGACUCGCCCGA
modifications: 2'-F C and U
For B3, the Kd ([2]; chain copies: 2 (stated dimer)) was 0.6 nM.

B4: LF1614 (ssRNA)
RNA: GGGAGGACGAUGCGGCAAACAAGCUCAAAUGACGUGUUUUUCAAGUCCUUGUUGUCAGACGACUCGCCCGA
modifications: 2'-F C and U
Binder B4 has a Kd ([2]; chain copies: 2 (stated dimer)) of 0.17 nM.

B5: LF1514 (ssRNA)
RNA: GGGAGGACGAUGCGGUACCUCAAAUUGCGUGUUUUCAAGCAGUAUCAGACGACUCGCCCGA
modifications: 2'-F C and U
Work on B5 yielded a Kd [3] of 0.8 nM.

B6: LF1513 (ssRNA)
RNA: GGGAGGACGAUGCGGGCUCUUCAGCAACGUGUUAUCAAGUUAGCCCAGACGACUCGCCCGA
modifications: 2'-F C and U
With B6 the Kd [3] was 4 nM.

B7: LF1817 (ssRNA)
RNA: GGGAGGACGAUGCGGUGCUUAAACAACGCGUGAAUCGAGUUCAUCCACUCCUCCUCAGACGACUCGCCCGA
modifications: 2'-F on all C and U
For B7, the Kd [4] was 2.3 nM.

B8: LF1712 (ssRNA)
RNA: GGGAGGACGAUGCGGGAUCUUAAGCAGUGCGUUAUUCGAACUAUCCCAGACGACUCGCCCGA
modifications: 2'-F C and U
In the case of B8, the Kd [5] is reported as 0.065 nM.

B9: WGA ligand 11.6 (ssRNA)
RNA: GGGAAAAGCGAAUCAUACACAAGACUGGGGAGCAGGAUAUGAGAUGUGCGGGGCAAUGGAGUCGUGACGAACCGCUCCGCCAGAGACCAACCGAGAA
modifications: 2'-NH2 on all C and U
For B9, the Kd [6, 9] was 702 nM.

B10: LF1521 (ssRNA)
RNA: GAGGACGAUGCGGGCUCUUAAGCAACGUGUUAUCAAGUUAGCCCAGACGACUCGCCCGA
modifications: 2'-F C and U
With B10 the Kd [5] was 0.25 nM.

B11: LF1516 (ssRNA)
RNA: GGGAGGACGAUGCGGUCAUUCUCUAAAAAAGUAUUCCGUACCUCCACAGACGACUCGCCCGA
modifications: 2'-F on all C and U
In the case of B11, the Kd [4] is reported as 1.3 nM.

B12: LF1808 (ssRNA)
RNA: GGGAGGACGAUGCGGCAUGGUCUUAGGCGACGCGUUUAUAUCGAGUCACCAUGCUCAGACGACUCGCCCGA
modifications: 2'-F C and U
B12 showed a Kd ([2]; chain copies: 2 (stated dimer)) of 0.6 nM.

B13: LD201T1 branched dimer (ssDNA)
DNA: TAGCCAAGGTAACCAGTACAAGGTGCTAAACGTAATGGCTTCGGCTTAC
modifications: two copies linked 3' ends via five-unit ethylene glycol spacers to 3'-3' symmetric linker
In the case of B13, the EC50 [7] is reported as roughly 0.15 nM.

B14: LF1618 (ssRNA)
RNA: GGGAGGACGAUGCGGUUAGCCUACACUCUAGGUUCAGUUUUCGAAUCUUCCACCGCAGACGACUCGCCCGA
modifications: 2'-F C and U [all C and U 2'-F; W in the 3' fixed region (cagacgacucgcccga) = A]
For B14, the Kd [3] was 25 nM.

B15: WGA ligand 6.5 (ssRNA)
RNA: GGGAAAAGCGAAUCAUACACAAGAGUCCCUAGGGAUGCAACGGGCAGCAUUCGCAUAGGAGUAAUCGGAGGUCGCUCCGCCAGAGACCAACCGAGAA
modifications: 2'-NH2 C and U
Work on B15 yielded a Kd [6, 10] of 678 nM.

B16: LF1816 (ssRNA)
RNA: GGGAGGACGAUGCGGUGCUAUUCUUAAGCGGCGUGUAAAUCAAGCUAGAUCAUCGUCAGACGACUCGCCCGA
modifications: 2'-F C and U
B16: no binding [1].

B17: LF1613 (ssRNA)
RNA: GGGAGGACGAUGCGGUGCUAUUCUUAAGCGGCGUGUUUUUCAAGCCAAUAUCAUCAGACGACUCGCCCGA
modifications: 2'-F C and U
For B17, the Kd [3] was 0.2 nM.

B18: LF1815 (ssRNA)
RNA: GGGAGGACGAUGCGGCCAUCGGUCUUGGGCAACGCGUUUUCGAGUUACCUAUGGUCAGACGACUCGCCCGA
modifications: 2'-F C and U
For B18, the Kd [5] was 0.18 nM.

B19: WGA ligand 6.23 (ssRNA)
RNA: GGGAAAAGCGAAUCAUACACAAGACUCGGCGGGAAUCGAAAGUGUACUGAAUUAGAACGGUGGGCCUGCUCAUCGUGCUCCGCCAGAGACCAACCGAGAA
modifications: 2'-NH2 C and U
Binder B19 has a Kd [6, 10] of 824 nM.

B20: LF1536 (ssRNA)
RNA: GGGAAGACGAUGCGGCGCUCAAAUAAUGCGUUAAUCGAAUUCGCCCAGACGACUCGCCCGA
modifications: 2'-F C and U
In the case of B20, the Kd [5] is reported as 0.22 nM.

For AGCTGGCGGTACGGGCCGTGCACCCACTTACCTGGGAAGTGAGCTTA (ssDNA) [LD196T1], the IC50 [8] was roughly 3 nM.

B21: WGA ligand 6.9 (ssRNA)
RNA: GGGAAAAGCGAAUCAUACACAAGACUCGGCGGGAACGAAGUGUGUGAGUAACGAUCACUUGGUACUAAAAGCCCGCUCCGCCAGAGACCAACCGAGAA
modifications: 2'-NH2 on all C and U
B21 was tested, and the Kd [6, 9] was 396 nM.

B22: LF1708 (ssRNA)
RNA: GGGAGGACGAUGCGGAUCUUAAGCAGCGCGUCAAUCGAGCUAACCCAGACGACUCGCCCGAG
modifications: 2'-F on all C and U
In the case of B22, the Kd ([2]; chain copies: dimer, label: 32P) is reported as 70 nM.

TAGCCATTCACCATGGCCCCTTCCTACGTATGTTCTGCGGGTGGCTTA (ssDNA) [LD174T1] showed an IC50 [8] of roughly 3 nM.
